From the supplement of paper PMC10724198
± gives the standard deviation of the averaged measurements.

Test system: Saccharomyces cerevisiae
Assay: protein stability index of tFT-peptide fusion (C-terminal peptide) (PSI (0-1 scale)); higher = more stable (slower turnover)
Conditions: genetic background: wild type; temperature: 30 C
Method: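 Multiplexed protein stability (MPS) profiling in S. cerevisiae. Random 12-aa peptides (tFT-X12 library) are fused to the C-terminus of a sfGFP-mCherry tandem fluorescent timer, after mCherry and a GGGS linker. Cells are FACS-sorted into 8 mCherry/sfGFP bins and deep-sequenced. The protein stability index (PSI) is the read-weighted bin average, scaled from 0 (unstable) to 1 (stable). Only peptides with >10 reads are reported; cells were grown at 30 °C in SC-His with glucose.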
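Also: PSI is a weighted mean of sequencing reads over stability bins, variants kept only with over 10 reads, mCherry proximal and sfGFP distal, peptide attached via GGGS linker.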

Row | Sequence | protein stability index
1 | GIGGSGLVSVVD | 0.716 ± 0.039
2 | GIGLVIEDKLLL | 0.683 ± 0.042
3 | GIGVRLGFWCRG | 0.75 ± 0.05
4 | GILVDGRGRGCR | 0.735 ± 0.039
5 | GIMFVSEPVLSS | 0.664 ± 0.0025
6 | GIPPFFTLCRLS | 0.57 ± 0.034
7 | GIRHSNLGQALE | 0.686 ± 0.11
8 | GITAWMAHPRSV | 0.706 ± 0.012
9 | GIVGCDFLLFYF | 0.698 ± 0.018
10 | GIVGLFSALSLL | 0.706 ± 0.1
11 | GIWVMVSVCSIA | 0.537 ± 0.082
12 | GIWVWRGARSVG | 0.745 ± 0.054
13 | GIYCSFSCKPCP | 0.6699 ± 0.0042
14 | GKAKGRESGDRQ | 0.678 ± 0.039
15 | GKKKKKERKHGA | 0.7351 ± 0.0055
16 | GKKKRKTKGKNR | 0.663 ± 0.035
17 | GKKKVKEWKKQM | 0.604 ± 0.025
18 | GKKRFENKKEKY | 0.762 ± 0.12
19 | GKMQIRRFISRS | 0.67 ± 0.0088
20 | GKPSEMSMREDS | 0.704 ± 0.019
21 | GKRHSYSIISSV | 0.668 ± 0.061
22 | GKRLKKTRTKKS | 0.704 ± 0.059
23 | GKRLRFNRRTRA | 0.662 ± 0.11
24 | GKVTRGTRRGGK | 0.66901 ± 0.0003
25 | GLADPPNSRPAG | 0.673 ± 0.05

Row | Sequence | protein stability index
26 | GLASFVMQVAPF | 0.705 ± 0.008
27 | GLDEAYVSRNIN | 0.647 ± 0.011
28 | GLDRCFTSFYSI | 0.702 ± 0.059
29 | GLFSTRLFCTFL | 0.635 ± 0.026
30 | GLGEGLVCFLLG | 0.73 ± 0.056
31 | GLGGRGRRASEW | 0.664 ± 0.071
32 | GLGKFSALSLVV | 0.658 ± 0.044
33 | GLGLGLSGGAML | 0.665 ± 0.069
34 | GLGMIIQNIIHS | 0.642 ± 0.026
35 | GLGPMPRGTSTI | 0.692 ± 0.1
36 | GLGRWGCLEGLG | 0.716 ± 0.071
37 | GLGTAFGAADTV | 0.693 ± 0.012
38 | GLGVCSPRFLVL | 0.763 ± 0.15
39 | GLGVWDLRLGWG | 0.701 ± 0.011
40 | GLHSSNQLGALY | 0.677 ± 0.036
41 | GLLCSKTCCAGV | 0.6453 ± 0.0024
42 | GLLDGEILKRRI | 0.6978 ± 0.0053
43 | GLLEGGLWVWGL | 0.692 ± 0.04
44 | GLLQRCGAWRGS | 0.656 ± 0.04
45 | GLMAIKVNLNHS | 0.619 ± 0.032
46 | GLPFPPGPIFVS | 0.743 ± 0.19
47 | GLPPPPQPLPHA | 0.726 ± 0.14
48 | GLPPPSPPVPLL | 0.683 ± 0.043
49 | GLRPPGLRLGSL | 0.6475 ± 0.0047
50 | GLRPPPLRPAPP | 0.704 ± 0.08

Row | Sequence | protein stability index
51 | GLRSDIGQVTHP | 0.635 ± 0.066
52 | GLSEPWVFFLRC | 0.64 ± 0.012
53 | GLSRAWVAGVRG | 0.735 ± 0.037
54 | GLVCSHLRTAGS | 0.6857 ± 0.0063
55 | GLVRWRWGDRPS | 0.56 ± 0.066
56 | GLVSALSGLLTP | 0.651 ± 0.089
57 | GLWQRVGIVIGC | 0.58 ± 0.017
58 | GLYRQRVCLRSG | 0.6097 ± 0.0036
59 | GMAKGWHCESSS | 0.716 ± 0.041
60 | GMLGVIGGKVGR | 0.699 ± 0.052
61 | GMQVRNTKERRG | 0.714 ± 0.02
62 | GMRFDTERKWLL | 0.695 ± 0.084
63 | GMSFALSVYFFP | 0.601 ± 0.01
64 | GMVRVRSIATHG | 0.597 ± 0.034
65 | GNFAGLTRDRGP | 0.674 ± 0.052
66 | GNFIGSWLHTVD | 0.811 ± 0.11
67 | GNGEGRKPPRPP | 0.619 ± 0.014
68 | GNKKRDSDKIKE | 0.6054 ± 0.0028
69 | GNLFIGLLHITC | 0.5753 ± 0.0034
70 | GNLVSFCTKKGA | 0.722 ± 0.014
71 | GNPDFQVTKNPY | 0.67 ± 0.078
72 | GNQAILGRYLSV | 0.623 ± 0.051
73 | GNVAMRKNIIGL | 0.674 ± 0.057
74 | GNVNCNLRRYYI | 0.766 ± 0.086
75 | GPAAPAGNPETV | 0.6694 ± 0.0043

Row | Sequence | protein stability index
76 | GPCPCAPRSPSY | 0.6705 ± 0.0033
77 | GPFLFPGASCGL | 0.717 ± 0.011
78 | GPFRGRCFPFCI | 0.667 ± 0.037
79 | GPGCVFFLACRG | 0.559 ± 0.024
80 | GPGFGEFVWSLW | 0.692 ± 0.044
81 | GPGPRLSCLVPT | 0.73 ± 0.035
82 | GPGTYGASLSGR | 0.65 ± 0.053
83 | GPKGVTRCGATR | 0.721 ± 0.12
84 | GPKPHREKKSIN | 0.73 ± 0.045
85 | GPKSPLVCSPPP | 0.657 ± 0.13
86 | GPLATACPPALT | 0.701 ± 0.046
87 | GPLPPPFSALPP | 0.703 ± 0.024
88 | GPLRFSLPPPPS | 0.69 ± 0.017
89 | GPRPHVLPLAYF | 0.675 ± 0.024
90 | GPRTPPKPRQVP | 0.616 ± 0.024
91 | GPSCSGLHAPTS | 0.831 ± 0.1
92 | GPSGGSGGGGVG | 0.597 ± 0.049
93 | GPSLLLLSVLSE | 0.6225 ± 0.003
94 | GPTSTETYKEVG | 0.671 ± 0.0011
95 | GPVLELWLGRSR | 0.775 ± 0.04
96 | GPVQSISMTVGH | 0.6548 ± 0.0025
97 | GPVSVTFGGTYC | 0.678 ± 0.046
98 | GPWGGRLSWAPG | 0.636 ± 0.0092
